According to PMC8080960 (The journal of physical chemistry. B, 2021):

Molecular target: the molecule itself
Test: amyloid fibril formation

B1: C-terminal domain of TDP-43 (TDP-43CTD), wild type, residues 267-414, tagless (domain or fragment)
chain: GHMNRQLERSGRFGGNPGGFGNQGGFGNSRGGGAGLGNNQGSNMGGGMNFGAFSINPAMMAAAQAALQSSWGMMGMLASQQNQSGPSGNNQNQGNMQREPNQAFGSGNNSYSGSNSGAAIGWGSASNAGSGSGFNGGFGSSMDSKSSGWGM
- binding result: binds
